Test system: MRSA (191-SM^R)
Assay: In vivo nasal decolonization of MRSA
Parameters: species or system C57BL/6J mice
Conditions: three hourly intranasal doses of ClyS (960 μg) 24 h post-infection; 1 h after last treatment; p<0.001 vs buffer
Description: Carriage of both MSSA and MRSA in the human anterior nares is the major reservoir for S. aureus infection. Studies have shown that roughly 80% of the population could be nasally colonized by S. aureus, and that colonization can be an increased risk factor for developing other more serious S. aureus infections (Kluytmans, J., A. van Belkum. 1997. Nasal carriage of Staphylococcus aureus: epidemiology, underlying mechanisms, and associated risks. Clin Microbiol Rev 10(3): 505-20). Elimination of nasal carriage in the community or in the hospital setting thus could possibly reduce the risk of infection and slow the spread of drug resistant S. aureus (Kluytmans et al. (1997)). To study the potential of ClyS to reduce MRSA colonization of the nasal mucosa, C57BL/6J mice were intranasally inoculated with ˜2×10^7 of a spontaneously streptomycin resistant strain of MRSA (191-SM^R). Twenty-four hours post-infection mice were administered three doses hourly of either phosphate buffered saline (control) or ClyS (960 μg) into the nasal passages. One hour after the last treatment, mice were sacrificed and bacteria colonies were enumerated on Spectra MRSA agar, (a selective chromogenic medium developed to diagnostically detect MRSA nasal colonization) and Columbia blood agar. […]

B1: ClyS: chimeric lysin: Twort lysin endopeptidase domain attached to the phiNM3 CWT domain, 280 amino acid residues (protein)
chain: METLKQAESYIKSKVNTGTDFDGLYGYQCMDLAVDYIYHVTDGKIRMWGNAKDAINNSFGGTATVYKNYPAFRPKYGDVVVWTTGNFATYGHIAIVTNPDPYGDLQYVTVLEQNWNGNGIYKTELATIRTHDYTGITHFIRPNFATESSVKKKDTKKKPKPSNRDGLNKDKIVYDRTNINYNMVLQGKSASKITVGSKAPYNLKWSKGAYFNAKIDGLGATSATRYGDNRTNYRFDVGQAVYAPGTLIYVFEIIDGWCRIYWNNHNEWIWHERLIVKEVF
modifications: Chimeric of Staphylococcus aureus bacteriophage Twort domain and Staphylococcus aureus phage phiNM3 CWT domain
notes: chimeric lysin: Twort lysin endopeptidase domain attached to the phiNM3 CWT domain, 280 amino acid residues
mean CFU on the nasal mucosa: 1198 CFU/cavity

Reference: patent US11827911B2, “Chimeric bacteriophage lysin with activity against Staphylococci bacteria” (priority 2008, dated 2023)
